Measured values as given in paper PMC7905918, “20E-mediated regulation of BmKr-h1 by BmKRP promotes oocyte maturation”.

T1: BmKRP (Bombyx mori, UniProt A0A8R1WHU4 1-518)
T1 sequence: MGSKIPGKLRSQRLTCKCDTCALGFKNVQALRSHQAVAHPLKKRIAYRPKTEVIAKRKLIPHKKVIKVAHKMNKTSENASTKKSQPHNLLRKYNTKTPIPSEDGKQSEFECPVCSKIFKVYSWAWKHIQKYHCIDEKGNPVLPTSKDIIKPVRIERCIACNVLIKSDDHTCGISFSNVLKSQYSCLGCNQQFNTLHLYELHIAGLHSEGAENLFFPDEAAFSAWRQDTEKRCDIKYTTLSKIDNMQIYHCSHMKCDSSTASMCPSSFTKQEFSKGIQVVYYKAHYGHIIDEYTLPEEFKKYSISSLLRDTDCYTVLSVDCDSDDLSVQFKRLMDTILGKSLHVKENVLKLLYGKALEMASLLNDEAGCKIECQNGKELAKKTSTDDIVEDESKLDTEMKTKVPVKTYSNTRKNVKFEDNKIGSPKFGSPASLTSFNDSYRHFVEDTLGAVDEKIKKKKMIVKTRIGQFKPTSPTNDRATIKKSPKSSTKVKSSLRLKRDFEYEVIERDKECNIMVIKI

B1: -248~-217 mutant probe 6 (left flank mutated) (dsDNA)
DNA 1: GGCGGCCCACATCCGAAAACGCAATAATCATT
DNA 2: AATGATTATTGCGTTTTCGGATGTGGGCCGCC
B2: BmKr-h1 20E CRE -248~-217 WT probe (dsDNA)
DNA 1: TTATTAAAACATCCGAAAACGCAATAATCATT
DNA 2: AATGATTATTGCGTTTTCGGATGTTTTAATAA
B3: -248~-217 mutant probe 7 (right flank mutated) (dsDNA)
DNA 1: TTATTAAAACATCCGAAAACGACCGCCGACGG
DNA 2: CCGTCGGCGGTCGTTTTCGGATGTTTTAATAA
B4: -248~-217 mutant probe 5 (both flanks mutated) (dsDNA)
DNA 1: GGCGGCCCACATCCGAAAACGACCGCCGACGG
DNA 2: CCGTCGGCGGTCGTTTTCGGATGTGGGCCGCC
B5: -248~-217 mutant probe 4 (central … region mutated) (dsDNA)
DNA 1: TTATTAACCACGAATCCCCATAAATAATCATT
DNA 2: AATGATTATTTATGGGGATTCGTGGTTAATAA

What was measured:
Details in all cases: protein: ivt; label: 5' biotin; blunt
[1] = biological target: T1, BmKRP; test: EMSA; Discussion calls it weaker (citing Fig. 3f); EMSA: 1x binding buffer (LightShift kit), 2.5% glycerol, 0.05% NP-40, 50 mM KCl, 5 mM MgCl2, 4 mM EDTA, 1 ug poly dI-dC, 20 fmol probe, room temperature 20 min; pull-down: 10 mM HEPES pH 7.6, 100 mM K-glutamate, 80 mM KCl, 10 mM Mg acetate, 4 C
[2] = biological target: T1, BmKRP; test: EMSA; competed by 50-fold unlabeled probe; EMSA: 1x binding buffer (LightShift kit), 2.5% glycerol, 0.05% NP-40, 50 mM KCl, 5 mM MgCl2, 4 mM EDTA, 1 ug poly dI-dC, 20 fmol probe, room temperature 20 min; pull-down: 10 mM HEPES pH 7.6, 100 mM K-glutamate, 80 mM KCl, 10 mM Mg acetate, 4 C
[3] = biological target: T1, BmKRP; test: EMSA; EMSA: 1x binding buffer (LightShift kit), 2.5% glycerol, 0.05% NP-40, 50 mM KCl, 5 mM MgCl2, 4 mM EDTA, 1 ug poly dI-dC, 20 fmol probe, room temperature 20 min; pull-down: 10 mM HEPES pH 7.6, 100 mM K-glutamate, 80 mM KCl, 10 mM Mg acetate, 4 C

Row | Binder | binding result [1] | binding result [3] | also measured
1 | B1 | binds |  | 
2 | B2 |  |  | binding result [2]: binds
3 | B3 | binds |  | 
4 | B4 |  | no binding | 
5 | B5 |  | binds | 
